System: MS2 coat protein
Experiment: apparent KD of MS2 coat protein; designed switch direction (-1 OFF switch, 1 ON switch): 1; higher = weaker reporter binding
Summary of the method: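 Apparent KD, taken as the median over clusters for each design, was obtained by curve-fitting normalised cluster fluorescence. Designed RNA switches had been transcribed on Illumina chips by stalled E. coli RNA polymerase and titrated with SNAP-549-labelled MS2 coat protein, doubling from 0.7 or 1.5 nM to 3 µM.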

[1] = Eterna round: R95, input ligand: FMN 200 uM
[2] = Eterna round: R95, input ligand: microRNA oligo, concentration not stated
[3] = Eterna round: R95, input ligand: none
[4] = input ligand: microRNA oligo, concentration not stated

Sequence | apparent KD of MS2 coat protein [1] | apparent KD of MS2 coat protein [2] | apparent KD of MS2 coat protein [3] | apparent KD of MS2 coat protein [4] | apparent KD of MS2 coat protein (input ligand: FMN 200 uM) | apparent KD of MS2 coat protein (input ligand: none)
AGUCCAGCCUGAGCUGGACAAAAGCAUGUACAUGAGGAUCACCCAUGUUCAUGUGCAAGCUUUUUGCUCGUCUUAAA [Zipper 52 - 4] (puzzle: Sensor for hsa-mir-208a) | 64.9 nM | 11.4 nM | 71.2 nM | – | – | –
GUUACAUGAGGAUCACCCAUGUAUGUGUGGGAGUAAGUGUCUUAGGAUAUCUAUCAUUUAAUAUAAGAGAAGGAAGAUUGUUGU [JMF's solution 96] (Eterna round: R96, puzzle: Same State NG 3) | – | – | – | 87.3 nM | – | –
GUUACAUGAGGAUCACCCAUGUAUGUGUGGGAGUAAGUGUCUUAGGAUAUCUAUGAUUUAACUUAAGAGAAGGAAGAUUGUUGU [JMF's solution 81] (Eterna round: R96, puzzle: Same State NG 3) | – | – | – | 72.9 nM | 123 nM | 98.6 nM
CUCCCUUGGGUAGGAUAUCUAGGAUAUGGGAAAGACUAAGUCUGUAGGUCACCUAACCCAGAUGGAGAGAAGGACCCAACACUC [pwkr ssNG2 2FMN + F9.39] (Eterna round: R96, puzzle: Same State NG 2) | – | – | – | 33.3 nM | 3.66 nM | 15.8 nM
GUGGAGGGUUGAGGAUAUUGAAUACAUAUGUUUAACAUGAGGAUCACCCAUGUGGGUUGCGGUUUCGAGAAGGUAGGUUGCUGG [salish99_SSNG2_r04_040] (Eterna round: R96, puzzle: Same State NG 2) | – | – | – | 72 nM | 103 nM | 111 nM
AGCCGAGACACAGGAUAUACAUGUUUACAUGAGGAUCACCCAUGUAGCAACACGUGGUAGUGAUUGUAGAAGGGUGCUCGGCGC [Omei SS(NG)2 Cv12] (Eterna round: R96, puzzle: Same State NG 2) | – | – | – | 12.6 nM | 15.8 nM | 23.3 nM
GGAGAGAGAGCACAGGAUAUUAGAGGAGAGACAUGAGGAUCACCCAUGUAAGAGAGAGAGGAGAGUGAGAAGGGUGAGAGAGAGG [Altered State 2-19 - Jieux - Same State 2] (puzzle: Same State 2) | 241 nM | 82.9 nM | 213 nM | – | – | –
UGAACCUUCACAGGAUAUCAUGCGAAAAUUGCGUGAGAAGGGUGGAUGUGGCGUUCAUAGUUGCACAUGAGGAUCACCCAUGUA [SameState NG1 #50] (Eterna round: R96, puzzle: Same State NG 1) | – | – | – | 212 nM | 257 nM | 134 nM
AAAAAACAUGAGGAUCACCCAUGUAAAAAAAACACAGGAUAUCCCUUUUUUAAAAAAAAAGGAGAAGGGUGAAAAA [Nob's Hobby 7 - Jieux - Same State 1] (Eterna round: R96, puzzle: Same State 1) | – | – | – | 36.4 nM | – | –
GUUACAUGAGGAUCACCCAUGUAUGUGUGGGAGUAAGUGUCUUAGGAUAUCUAGUAUUUGAUUUAAGAGAAGGAAGAUUGUUGU [JMF's solution 60] (Eterna round: R96, puzzle: Same State NG 3) | – | – | – | 75.4 nM | 121 nM | 110 nM
AGUCCAGCCUGAGCUGGACAAAAGCAUGUACAUGAGGAUCACCCAUGUCAUGUACAAGCUUUUUGCUCGUCAAAAUA [Mat - hsa-mir-208a - Mod of JL - D29] (puzzle: Sensor for hsa-mir-208a) | 396 nM | 16.5 nM | 480 nM | – | – | –
GCCAACAUGAGGAUCACCCAUGUCCGGAAGUGAAUUCAAAGUGAGGAUAUGGAGAGACCGAAAAUCCAGAAGGCACGCACAUGC [Eternabot solution 10] (Eterna round: R96, puzzle: Same State NG 3) | – | – | – | 475 nM | 1500 nM | 1260 nM
